Data on three molecules can be found in patent US7994133B2, “Isozyme-specific antagonists of protein kinase C” (The Board of Trustees of the Leland Stanford Junior …, priority 2003, dated 2011).

In one test the target is T1, GST-εRACK (Homo sapiens, UniProt P35606).
T1 construct: made in house; host or cells: Hi5 insect cells (baculovirus made in Sf9)
T1 sequence (P35606 2-906 limits assumed): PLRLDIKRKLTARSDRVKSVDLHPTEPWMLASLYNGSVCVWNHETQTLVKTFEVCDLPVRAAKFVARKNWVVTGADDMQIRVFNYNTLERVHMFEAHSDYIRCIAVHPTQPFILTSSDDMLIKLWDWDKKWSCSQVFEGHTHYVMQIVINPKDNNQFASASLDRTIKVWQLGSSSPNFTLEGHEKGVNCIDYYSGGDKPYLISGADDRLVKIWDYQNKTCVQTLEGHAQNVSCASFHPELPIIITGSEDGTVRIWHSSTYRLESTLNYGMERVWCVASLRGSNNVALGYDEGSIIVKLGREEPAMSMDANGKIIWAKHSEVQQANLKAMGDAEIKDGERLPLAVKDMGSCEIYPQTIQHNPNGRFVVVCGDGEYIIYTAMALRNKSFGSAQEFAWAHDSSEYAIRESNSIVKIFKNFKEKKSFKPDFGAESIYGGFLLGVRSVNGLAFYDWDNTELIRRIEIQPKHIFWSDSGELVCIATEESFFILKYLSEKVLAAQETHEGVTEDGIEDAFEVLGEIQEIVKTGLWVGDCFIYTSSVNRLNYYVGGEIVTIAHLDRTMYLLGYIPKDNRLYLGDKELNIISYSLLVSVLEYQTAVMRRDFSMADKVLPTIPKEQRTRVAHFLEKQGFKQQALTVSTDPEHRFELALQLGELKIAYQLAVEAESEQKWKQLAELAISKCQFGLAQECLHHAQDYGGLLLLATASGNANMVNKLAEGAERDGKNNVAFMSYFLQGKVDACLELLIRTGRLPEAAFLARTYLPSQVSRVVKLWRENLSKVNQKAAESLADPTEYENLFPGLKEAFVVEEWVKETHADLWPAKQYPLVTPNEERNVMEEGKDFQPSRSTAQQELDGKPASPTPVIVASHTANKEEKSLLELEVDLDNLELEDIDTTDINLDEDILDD
Briefly: εRACK binding assay. The settings on record: for change of binding to εRACK in the presence of PL: with versus without phosphatidylserine and Sn-1,2 dioleoylglycerol. The procedure: RACKs bind active PKC [Mochly-Rosen, D. & Gordon, A. S., FASEB J. 12:35-42 (1998); Mochly-Rosen, D. et al., Molec. Biol. Cell. (formerly Cell Regulation) 1:693-706 (1990).
Insect cells expressing either εPKC or GST-εRACK were lysed as described in Example 4. GST-εRACK, […] was immobilized on Glutathion-Sepharose 4B beads (Amersham-Pharmacia), and washed thoroughly with wash buffer (20 mM Tris-HCl pH 7.5, 2 mM EDTA, 100 mM NaCl, 12 mM βME, and 0.1% TritonX-100). Immobilized GST-εRACK was then incubated with the soluble fraction of insect cell lysates containing 100 ng Wt, D(86)A, or D(86)N εPKC protein, in the presence or absence of phospholipid activators (PL) (phosphatidylserine 12 μg/reaction and, Sn-1,2 dioleoylglycerol 400 ng/reaction) for 1 hour at 4° C. Upon thorough washing with wash buffer, bound proteins were eluted in SDS-PAGE sample buffer and proteins separated on 8% SDS-PAGE gels. The amount of εPKC interacting with εRACK was determined by Western blot probing for εPKC with anti εPKC-V5 antibodies. Blots were then re-probed with ant-GST (Santa Cruz) to verify that the same amount of GST-εRACK was present in each binding assay. All other methods for this Example were performed as described, for example, in Example 4.

A further test deals with CHO and MCF-7 cells. The test can be described thus: PKC translocation by Western blot, soluble to particulate fraction, after PMA. Type of test: cell-based. The settings on record: 10 minutes PMA, 100 nM in CHO, 10 nM in MCF-7. As for the experimental part:
To assess PKC distribution the different cell fractions were run on SDS PAGE, transferred for Western blot analysis and probed with anti-εPKC V5 antibodies. Lysates of overexpressed GFP-εPKC were diluted to approximately 0.2 μg/well. At this concentration endogenous εPKC was not detected. All other methods for this Example were performed as described, for example, in Example 4. It was also confirmed that the Wt and ΨεRACK εPKC mutants were sensitive to activation by phorbol ester and that they translocated from the soluble to the particulate fraction of the cell upon activation. Translocation of the εPKC mutants was determined using two different cell lines, MCF-7 and CHO. [CHO cells were stimulated for 10 minutes with 100 nM PMA (FIG. 6C). MCF-7 cells were stimulated with 10 nM PMA for 10 minutes (FIG. 6D, 6E), since stimulation of MCF-7 cells with higher doses of PMA caused a detachment of the cells]. After treatment with PMA, cells were fractionated into soluble and particulate fractions, and GFP-εPKC was detected and quantified by Western blot analysis using anti-εPKC. […] This is not due to PKC degradation; the total amount of εPKC was not changed upon activation. Therefore, GFP-εPKC ΨεRACK mutants were catalytically active and responded to activation by PMA by translocating from the soluble to the particulate fraction of the cell.

B1: D(86)A: εPKC mutant wherein D at position 86 of ΨεRACK on εPKC is substituted with an A (protein)
chain: MVVFNGLLKIKICEAVSLKPTAWSLRHAVGPRPATFLLDPYIALNVDDSRIGQTATKQKTNSPAWHDEFVTDVCNGRKIELAVFHAAPIGYDDFVANCTIQFEELLQNGSRHFEDWIDLEPEGRVYVIIDLSGSSGEAPKDNEERVFRERMRPRKRQGAVRRRVHQVNGHKFMATYLRQPTYCSHCRDFIWGVIGKQGYQCQVCTCVVHKRCHELIITKCAGLKKQETPDQVGSQRFSVNMPHKFGIHNYKVPTFCDHCGSLLWGLLRQGLQCKVCKMNVHRRCETNVAPNCGVDARGIAKVLADLGVTPDKITNSGQRRKKLIAGAESPQPASGGSPSEEDRSKSAPTSPCDQEIKELENNIRKALSFDNRGEEHRAASSPDGQLMSPGENGEVRQGQAKRLGLDEFNFIKVLGKGSFGKVMLAELKGKDEVYAVKVLKKDVILQDDDVDCTMTEKRILALARKHPYLTQLYCCFQTKDRLFFVMEYVNGGDLMFQIQRSRKFDEPRSRFYAAEVTSALMFLHQHGVIYRDLKLDNILLDAEGHCKLADFGMCKEGILNGVTTTTFCGTPDYIAPEILQELEYGPSVDWWALGVLMYEMMAGQPPFEADNEDDLFESILHDDVLYPVWLSKEAVSILKAFMTKNPHKRLGCVASQNGEDAIKQHPFFKEIDWVLLEQKKIKPPFKPRIKTKRDVNNFDQDFTREEPVLTLVDEAIVKQINQEEFKGFSYFGEDLMP
Consider B1, for which the “binding to εRACK relative to D(86)N or Wt” value with GST-εRACK (absence of PL activators) is on record as “at least two fold greater”. The “change of binding to εRACK in the presence of PL” value (from here on “change of binding to εRACK”) with GST-εRACK is “not increased”. For the same molecule, the “increase of εPKC in the particulate fraction compared with D(86)N or Wt” value in the test with CHO and MCF-7 cells is “greater increase”.

B2: Wt: wild type εPKC, human construct (protein)
chain: MVVFNGLLKIKICEAVSLKPTAWSLRHAVGPRPATFLLDPYIALNVDDSRIGQTATKQKTNSPAWHDEFVTDVCNGRKIELAVFHDAPIGYDDFVANCTIQFEELLQNGSRHFEDWIDLEPEGRVYVIIDLSGSSGEAPKDNEERVFRERMRPRKRQGAVRRRVHQVNGHKFMATYLRQPTYCSHCRDFIWGVIGKQGYQCQVCTCVVHKRCHELIITKCAGLKKQETPDQVGSQRFSVNMPHKFGIHNYKVPTFCDHCGSLLWGLLRQGLQCKVCKMNVHRRCETNVAPNCGVDARGIAKVLADLGVTPDKITNSGQRRKKLIAGAESPQPASGGSPSEEDRSKSAPTSPCDQEIKELENNIRKALSFDNRGEEHRAASSPDGQLMSPGENGEVRQGQAKRLGLDEFNFIKVLGKGSFGKVMLAELKGKDEVYAVKVLKKDVILQDDDVDCTMTEKRILALARKHPYLTQLYCCFQTKDRLFFVMEYVNGGDLMFQIQRSRKFDEPRSRFYAAEVTSALMFLHQHGVIYRDLKLDNILLDAEGHCKLADFGMCKEGILNGVTTTTFCGTPDYIAPEILQELEYGPSVDWWALGVLMYEMMAGQPPFEADNEDDLFESILHDDVLYPVWLSKEAVSILKAFMTKNPHKRLGCVASQNGEDAIKQHPFFKEIDWVLLEQKKIKPPFKPRIKTKRDVNNFDQDFTREEPVLTLVDEAIVKQINQEEFKGFSYFGEDLMP
B2: the “change of binding to εRACK” value with GST-εRACK is given as “significantly increased”.

B3: D(86)N: εPKC mutant wherein D at position 86 of ΨεRACK in εPKC is substituted with an N (protein)
chain: MVVFNGLLKIKICEAVSLKPTAWSLRHAVGPRPATFLLDPYIALNVDDSRIGQTATKQKTNSPAWHDEFVTDVCNGRKIELAVFHNAPIGYDDFVANCTIQFEELLQNGSRHFEDWIDLEPEGRVYVIIDLSGSSGEAPKDNEERVFRERMRPRKRQGAVRRRVHQVNGHKFMATYLRQPTYCSHCRDFIWGVIGKQGYQCQVCTCVVHKRCHELIITKCAGLKKQETPDQVGSQRFSVNMPHKFGIHNYKVPTFCDHCGSLLWGLLRQGLQCKVCKMNVHRRCETNVAPNCGVDARGIAKVLADLGVTPDKITNSGQRRKKLIAGAESPQPASGGSPSEEDRSKSAPTSPCDQEIKELENNIRKALSFDNRGEEHRAASSPDGQLMSPGENGEVRQGQAKRLGLDEFNFIKVLGKGSFGKVMLAELKGKDEVYAVKVLKKDVILQDDDVDCTMTEKRILALARKHPYLTQLYCCFQTKDRLFFVMEYVNGGDLMFQIQRSRKFDEPRSRFYAAEVTSALMFLHQHGVIYRDLKLDNILLDAEGHCKLADFGMCKEGILNGVTTTTFCGTPDYIAPEILQELEYGPSVDWWALGVLMYEMMAGQPPFEADNEDDLFESILHDDVLYPVWLSKEAVSILKAFMTKNPHKRLGCVASQNGEDAIKQHPFFKEIDWVLLEQKKIKPPFKPRIKTKRDVNNFDQDFTREEPVLTLVDEAIVKQINQEEFKGFSYFGEDLMP
Consider B3, for which the “εRACK binding compared with D(86)A or Wt” value with GST-εRACK (presence of an equal concentration of PL) is on record as “less εRACK binding”. In addition, the “change of binding to εRACK” value in the test with GST-εRACK is “significantly increased”.
